Reference: patent JP2022142155A (dated 2022)

Biological target: T1, ヒト血清アルブミン (human, UniProt P02768 25-609)
T1 construct: also called HSA; HSA
Experiment: SPR (Biacore T200), HSA amine-coupled on CM5 chip, VHH as analyte

T1 sequence (P02768 25-609 limits assumed): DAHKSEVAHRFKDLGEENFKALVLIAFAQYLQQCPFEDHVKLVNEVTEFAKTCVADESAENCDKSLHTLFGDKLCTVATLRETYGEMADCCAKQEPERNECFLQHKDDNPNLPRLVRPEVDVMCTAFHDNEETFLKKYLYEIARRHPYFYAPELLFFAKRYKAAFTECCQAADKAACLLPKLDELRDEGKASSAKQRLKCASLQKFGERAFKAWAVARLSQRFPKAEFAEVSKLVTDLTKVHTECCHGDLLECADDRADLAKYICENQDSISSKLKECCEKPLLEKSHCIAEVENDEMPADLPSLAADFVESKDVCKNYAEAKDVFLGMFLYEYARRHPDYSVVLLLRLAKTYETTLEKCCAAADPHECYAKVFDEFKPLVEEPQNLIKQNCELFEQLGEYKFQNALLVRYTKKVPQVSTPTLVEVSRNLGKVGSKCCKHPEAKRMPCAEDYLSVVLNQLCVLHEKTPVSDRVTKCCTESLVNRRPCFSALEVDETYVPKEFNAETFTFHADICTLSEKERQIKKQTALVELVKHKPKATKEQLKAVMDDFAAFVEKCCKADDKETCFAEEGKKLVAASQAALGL

| Binder | Kd [nM] |
| --- | --- |
| 配列番号:39により表されるアミノ酸配列を含む抗HSA抗体 (VHH, Expressed in E. coli from pRA2(+); also called H14A; H14A; not shown: C-terminal His tag from vector pRA2(+) (Ni-NTA purification, anti-His detection)) VHH: QLQLVESGGGLVQAGGSLRLSCAASGRTFRFSAMGWFRQAPGKEREFAAAISWTGGTTAYAESVKGRFIISRDNAKNTVYLQMNSLKPEDTAVYYCAAGPIPSPASRYDDWGQGTQVTVSS | 296 |
| 配列番号:38により表されるアミノ酸配列を含む抗HSA抗体 (VHH, Expressed in E. coli from pRA2(+); also called H10A; H10A; not shown: C-terminal His tag from vector pRA2(+) (Ni-NTA purification, anti-His detection)) VHH: QVQLVESGGGLVQTGGSLRLSCAASGRIVTVAAMGWFRQAPGKEREFVASISWSGRSRSYADSVKGRFTISRDNAKNTAYLQMSSLKPEDTGVYYCALGGNSYSSDYARYDYWGQGTQVTVSS | 124 |
| 配列番号:37により表されるアミノ酸配列を含む抗HSA抗体 (VHH, Expressed in E. coli from pRA2(+); also called H08A; H08A; not shown: C-terminal His tag from vector pRA2(+) (Ni-NTA purification, anti-His detection)) VHH: EVQLVESGGGLVHPGGSLRLSCVASGSDVSSDTMGWFRRAPGKQRELVAAIAWGGSTHYAESVKGRFTISRDNAKNTVYLQLSNLKPEDTAVYLCNTRNYWGQGTQVTVSS | 62.2 |

Stronger by Kd, values ahead:

| Kd [nM] | Binder |
| --- | --- |
| 22.9 | 配列番号:36により表されるアミノ酸配列を含む抗HSA抗体 (VHH, Expressed in E. coli BL21(DE3) pLysS from pRA2(+) behind a vector-encoded leader; also called H01A; H01A; not shown: C-terminal His tag from vector pRA2(+) (Ni-NTA purification, anti-His detection)) VHH: EVQLVESGGGFVQPGGSLRLSCVASGFTFERFDMGWVRQAPGKSLEWVSRFNSDDGRKSYADSVKGRFAISRDNAENTLYLQMNNLIPEDTAMYYCVKCQAYTSCTDAEDRGQGTQVTVSS |
| 0.077 | 配列番号:40により表されるアミノ酸配列を含む抗HSA抗体 (VHH, Expressed in E. coli from pRA2(+); also called H32A; H32A; not shown: C-terminal His tag from vector pRA2(+) (Ni-NTA purification, anti-His detection)) VHH: QVQLVESGGGLVQAGKSLRLSCTASGSIPSIGVTGWHRQAPGKQRELVATISQGGHINYFESVKGRFTISRDNAKNTVYLQMNSLKPEDTGVYYCNAFWLPLRLNDYWGQGTQVTVSS |
